Results from patent publication US20230295284A1 (published 2023).
Changes are numbered by the printed parent chain.

B1: LMJ2.4C (VHH)
VHH: QVQLVEAGGGLVQAGGSLRLSCAASGSTFSHSAGGWYRQAPEKQRELVAGIRSDGNINYADSVKDRFTISRDNASNTMYLQMNNLKPEDTAVYVCNIRGSYGNTYYSRWGQGIQVTVSS
modifications: sortase-tagged with biotin in the Western blots ; Purified by a his-tag for BLI and sortase-tagged with biotin in the Western blots. The tag letters are not stated for the free nanobody, so they are left out.
B2: LMJ2.5G (VHH)
VHH: B1 VHH with A7T, G8E, I113T
modifications: sortase-tagged with biotin in the Western blots ; Western blots used the nanobody sortase-tagged with biotin at a terminus. The BLI material was his-tag purified. Tag letters are not stated for the stand-alone nanobody and are left out.
B3: LMJ1.3J (VHH)
VHH: B1 VHH with E6G, A7T, R52S, D54A, I113T
modifications: sortase-tagged with biotin in the Western blots ; Purified by a his-tag for BLI and sortase-tagged with biotin in the Western blots. The tag letters are not stated for the free nanobody, so they are left out.
B4: LMJ1.2G (VHH)
VHH: B1 VHH with A7T, R52G, I113T
modifications: sortase-tagged with biotin in the Western blots ; Purified by a his-tag for BLI and sortase-tagged with biotin in the Western blots. The tag letters are not stated for the free nanobody, so they are left out.
B5: LMJ2.5H (VHH)
VHH: B1 VHH with A7T, A24V, I113T
modifications: sortase-tagged with biotin in the Western blots ; Western blots used the nanobody sortase-tagged with biotin at a terminus. The BLI material was his-tag purified. Tag letters are not stated for the stand-alone nanobody and are left out.
B6: LMJ2.5J (VHH)
VHH: B1 VHH with A7T, G8R, A24V, R52G, D54A, I113T
modifications: sortase-tagged with biotin in the Western blots ; Western blots used the nanobody sortase-tagged with biotin at a terminus. The BLI material was his-tag purified. Tag letters are not stated for the stand-alone nanobody and are left out.
B7: LMJ1.2C (VHH)
VHH: B1 VHH with A7T, I113T
modifications: sortase-tagged with biotin in the Western blots ; Purified by a his-tag for BLI and sortase-tagged with biotin in the Western blots. The tag letters are not stated for the free nanobody, so they are left out.
B8: LMJ2.5I (VHH)
VHH: B1 VHH with Q1R, A7T, A24V, I113A
modifications: sortase-tagged with biotin in the Western blots ; Purified by a his-tag for BLI and sortase-tagged with biotin in the Western blots. The tag letters are not stated for the free nanobody, so they are left out.
B9: LMJ2.5C (VHH)
VHH: B1 VHH with A7T, I51V
modifications: sortase-tagged with biotin in the Western blots ; Purified by a his-tag for BLI and sortase-tagged with biotin in the Western blots. The tag letters are not stated for the free nanobody, so they are left out.
B10: NJB2 (parental nanobody) (VHH)
VHH: B1 VHH with A7T, S32N, R52S, I113T
modifications: Purified by a his-tag. Its letters and position are not stated for the free nanobody, so it is left out.
B11: LMJ2.6A (VHH)
VHH: B1 VHH with Q1R, A7T, A24V, S27R, E88G, I113T
modifications: sortase-tagged with biotin in the Western blots ; Purified by a his-tag for BLI and sortase-tagged with biotin in the Western blots. The tag letters are not stated for the free nanobody, so they are left out.

These binders were tested against FN-EIIIB (assay: BLI).
Sequence of FN-EIIIB (chain, as listed by the source): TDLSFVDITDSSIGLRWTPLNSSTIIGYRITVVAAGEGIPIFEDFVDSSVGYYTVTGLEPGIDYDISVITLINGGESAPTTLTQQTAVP

| Binder | Kd [nM] |
| --- | --- |
| B1 | 0.0626 |
| B2 | 0.166 |
| B3 | 0.402 |
| B4 | 0.973 |
| B5 | 0.227 |
| B6 | 0.0622 |
| B7 | 0.3 |
| B8 | 0.0254 |
| B9 | 0.0785 |
| B10 | 1.82 |
| B11 | 0.344 |
